Experimental data as given in doi:10.1101/2024.07.27.605439.

Key:
[1] = biological target: Gαi1-V185F/H213Q double mutant (human) (UniProt P63096)
[2] = biological target: Gαi1-H213Q single mutant (human) (UniProt P63096)
[3] = biological target: Gαi1-V185F single mutant (human) (UniProt P63096)
[4] = biological target: Gαs-D229S single mutant (human) (UniProt P63092)
[5] = biological target: Gαs-F208V/D229S/Q236H triple mutant (human) (UniProt P63092)

“RGS domain of human RGS16 (residue 86–205) (domain or fragment)” gave an EC50 of RGS16 GAP activity (dose response) towards Gαi1-V185F/H213Q [1] of 45 nM, an EC50 of RGS16 GAP activity (dose response) towards Gαi1-H213Q [2] of 7 nM and an EC50 of RGS16 GAP activity (dose response) towards Gαi1-V185F [3] of 4 nM. The EC50 of RGS16 GAP activity (dose response) towards Gαs-D229S [4] was 800 nM and the EC50 of RGS16 GAP activity (dose response) towards Gαs-F208V/D229S/Q236H [5] was 9 nM.
